Blank lines part the entries; values can stand above or below the binder they belong to.
Assays:
[1] = biological target: T1, FcγRIIIa on NK cells of human PBMC (human, UniProt P08637 17-254); assay: cell-based or functional assay
[2] = biological target: T2, recombinant human His-tagged FcγRIIIa (extracellular domain made at Centocor) (human, UniProt P08637 17-208); assay: ELISA, His-tagged FcγRIIIa captured on HisGrab plate
T2 construct: extracellular domain; also called CD16a; recombinant, soluble, human FcγRIIIa
Description: (§1) FcγRIIIa (CD16a) ELISA—A human FcγRIIIa binding assay was done in ELISA format similar to the assay for FcγRI above. 50 μl of a 2 μg/ml solution of recombinant human His-tagged FcγRIIIa (extracellular domain made at Centocor) in ELISA buffer (PBS, 4 mg/ml BSA, 0.01% Tween-20) was added to each well of HisGrab 96 well plates (Pierce #15142) (Powers G., Notebook 10378, 19-23). The plate was incubated for 3 hours at room temp. The plates were blocked with 200 μl of Starting Block (Pierce #15142) for 30 min, and then washed 3× with 300 μl of wash buffer (PBS, 0.01% Tween-20) on a plate washer. Serial dilutions of the CNTO 860 test samples were made in Starting Block buffer and 50 μl per well of each titration were added in duplicate to the FcγRIIIa-coated plates. The plates were incubated for 1 hour. The plates were washed 3× with 300 μl of wash buffer on a plate washer. 50 μl of a 1:10,000 dilution of HRP-labeled goat F(ab′)2 anti-human IgG F(ab′)2 (Jackson Immunoresearch # 109-036-097) in Starting Block buffer was added to each well. The plates were incubated for 30 minutes. The plates were washed 3× with 300 μl of wash buffer on the plate washer. 50 μl per well TMB substrate (RDI #RDI-TMBSU-1L) was added to each well and developed for 3-5 minutes. The reaction was stopped by adding 100 μl 10.2 N sulfuric acid. The plates were read at OD450 on an Envision plate reader. Antibody concentration vs OD450 values were graphed for each CNTO 860 variant and the antibody concentration needed to achieve an OD450 reading of 0.14 established by interpolation within each data curve.

[3] = biological target: T3, recombinant polyhistidine tagged mouse FcγRI (R&D Systems) (mouse, UniProt P26151 25-297); assay: ELISA, His-tagged mouse receptor captured on copper-coated plate
T3 construct: Bought; also called murine FcγRI
T3 sequence (looked up): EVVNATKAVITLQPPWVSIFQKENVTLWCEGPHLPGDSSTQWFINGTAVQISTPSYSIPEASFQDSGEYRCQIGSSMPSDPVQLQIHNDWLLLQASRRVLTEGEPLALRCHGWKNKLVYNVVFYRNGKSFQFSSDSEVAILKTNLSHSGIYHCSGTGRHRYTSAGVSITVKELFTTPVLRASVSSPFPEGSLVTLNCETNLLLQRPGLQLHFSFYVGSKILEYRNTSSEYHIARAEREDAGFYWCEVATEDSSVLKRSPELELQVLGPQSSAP
Description: (§2) Commercially-available recombinant polyhistidine tagged mouse FcγRI, FcγRII, FcγRIII, and FcγRIV (R&D Systems) were diluted to 1 μg/ml in PBS and 100 μl/well was captured onto copper-coated plates (Pierce) overnight at 4° C. Plates were washed three times with wash buffer (0.15M NaCl, 0.02% Tween 20). Non-specific binding was blocked using 200 μl/well SuperBlock (Pierce) for 15 minutes at room temperature. Plates were washed three times as above. […] Plates were washed three times as above to remove unbound mAb. CNTO 860 variants that bound to plated receptors were detected using 100 μl/well HRP-labeled goat F(ab′)₂ anti-human IgG F(ab′)₂ (Jackson ImmunoResearch) diluted 1:5,000 in PBS incubated at room temperature for 1 hour. Plates were washed five times using wash buffer as above, and developed using 100 μl/well TMB Stable Stop substrate (Fitzgerald Industries) stopped with 0.5M HCl. Absorbance was detected at 450 nm.
(§3) All binding assays were in an ELISA format, with recombinant soluble receptor captured on coated EIA plates.

[4] = biological target: T4, recombinant polyhistidine tagged mouse FcγRII (R&D Systems) (mouse, UniProt P08101 40-217, limits assumed); assay: as above
T4 construct: Bought; also called FcRII
T4 sequence (looked up): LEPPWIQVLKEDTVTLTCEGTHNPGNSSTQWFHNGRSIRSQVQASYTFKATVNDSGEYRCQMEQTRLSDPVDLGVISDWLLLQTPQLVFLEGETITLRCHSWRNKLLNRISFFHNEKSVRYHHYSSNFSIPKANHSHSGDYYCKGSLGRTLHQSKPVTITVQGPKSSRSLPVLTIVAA
Description: as §2, §3

[5] = biological target: T5, recombinant polyhistidine tagged mouse FcγRIII (R&D Systems) (mouse, UniProt P08508 31-215); assay: as above
T5 construct: Bought
T5 sequence (looked up): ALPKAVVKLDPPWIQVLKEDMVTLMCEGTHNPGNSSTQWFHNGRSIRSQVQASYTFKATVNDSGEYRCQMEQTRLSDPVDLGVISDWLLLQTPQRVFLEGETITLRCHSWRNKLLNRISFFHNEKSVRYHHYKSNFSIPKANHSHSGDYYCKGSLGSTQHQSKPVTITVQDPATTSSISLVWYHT
Description: as §2, §3

[6] = biological target: T6, recombinant polyhistidine tagged mouse FcγRIV (R&D Systems) (mouse, UniProt A0A0B4J1G0 21-203); assay: as above
T6 construct: Bought
T6 sequence: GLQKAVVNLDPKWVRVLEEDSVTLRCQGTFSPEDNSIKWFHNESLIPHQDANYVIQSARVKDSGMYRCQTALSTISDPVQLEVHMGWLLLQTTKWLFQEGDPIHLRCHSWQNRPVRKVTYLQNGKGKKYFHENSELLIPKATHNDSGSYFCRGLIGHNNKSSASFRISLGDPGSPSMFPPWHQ
Description: as §2, §3

[7] = biological target: T7, recombinant human His-tagged FcγRIIa (R&D Systems #1330-CD-050) (human, UniProt P12318 36-218, limits assumed); assay: AlphaScreen
T7 construct: Bought; also called CD32a; recombinant, soluble, human FcγRIIa
T7 sequence (looked up): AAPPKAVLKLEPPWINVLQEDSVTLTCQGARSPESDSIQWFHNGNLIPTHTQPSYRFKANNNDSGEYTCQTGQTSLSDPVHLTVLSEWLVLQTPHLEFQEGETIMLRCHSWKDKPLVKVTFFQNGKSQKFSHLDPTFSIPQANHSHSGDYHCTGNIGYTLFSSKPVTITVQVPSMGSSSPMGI
Description: (§4) FcγRIIa (CD32a) AlphaScreen—Nickel acceptor beads (Perkin Elmer #6760619C) were diluted 1:50 in assay buffer (PBS, pH 7.4, 4 mg/ml BSA, 0.01% Tween-20), and 27.5 μl were added to each well of a Nunc V-bottom polypropylene plate (VWR # 62409-108) (Powers G., Notebook 9006, pp. 169-175, 182-185). A 2.0 μg/ml solution of recombinant human His-tagged FcγRIIa (R&D Systems #1330-CD-050) was prepared in assay buffer and 27.5 μl added to each well of a separate Nunc V bottom polypropylene plate. Titrations of test Abs were prepared in the Nunc V bottom polypropylene plate starting at 30 μg/ml. A 2 μg/ml solution of biotinylated goat F(ab′)₂ anti-human IgG F(ab′)₂ (Jackson Immunoresearch #109-066-097) was prepared in assay buffer and 27.5 μl added to each well of another Nunc V bottom polypropylene plate. A 1:50 dilution of streptavidin donor beads (PerkinElmer # 6760002) was prepared in assay buffer and 27.5 μl added to each well of another Nunc V bottom polypropylene plate. A volume of 5 μl of each reagent was added to the corresponding quadrants of a low-volume, non-binding white 384-well plate (Corning # 3673) in the following order: acceptor beads, FcγRIIa, test Ab, biotinylated anti-human IgG F(ab′)₂, and streptavidin donor beads. The plates were incubated for 30 minutes with shaking and the O.D.s determined using an Envision plate reader.
(§5) FcγRIIb (CD32b) AlphaScreen—The assay was performed as described above for FcγRIIa except that FcγRIIa was replaced with FcγRIIb (R&D Systems #1875-CD-050).

[8] = biological target: T1, FcγRIIIa on NK cells of human PBMC; assay: cell-based or functional assay; remark: listed apart in the source
[9] = biological target: T8, recombinant human FcγRIIb (R&D Systems #1875-CD-050) (human, UniProt P31994 46-217, limits assumed); assay: AlphaScreen
T8 construct: Bought; also called CD32b; recombinant, soluble, human FcγRIIb
T8 sequence (looked up): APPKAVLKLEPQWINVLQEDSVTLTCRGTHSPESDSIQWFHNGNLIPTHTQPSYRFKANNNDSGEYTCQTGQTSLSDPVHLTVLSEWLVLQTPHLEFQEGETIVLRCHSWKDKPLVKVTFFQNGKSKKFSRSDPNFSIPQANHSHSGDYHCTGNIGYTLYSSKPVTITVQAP
Description: as §4, §5

[10] = biological target: T9, recombinant human His-tagged FcγRI (extracellular domain, R&D Systems #1257-FC-050) (human, UniProt P12314 16-292); assay: ELISA
T9 construct: extracellular domain; Bought; also called CD64; recombinant, soluble, human FcγRI
Description: FcγRI (CD64) ELISA —50 μl of a 1 μg/ml solution of recombinant human His-tagged FcγRI (extracellular domain, R&D Systems #1257-FC-050) in ELISA buffer (PBS, pH 7.4, 4 mg/ml BSA, 0.01% Tween-20) was added to each well of HisGrab 96 well plates (Pierce #15142) (Powers G., Notebook 9006, pp. 166-168, 180-181). The plate was incubated with shaking for 3 hours. The plates were washed 3× with 300 μl of wash buffer (PBS, 0.01% Tween-20) on a plate washer. Serial dilutions of the CNTO860 antibody Fc-variant samples were made in ELISA buffer and 50 μl per well of each titration were added in duplicate to the FcγRI-coated plates. The plates were incubated with shaking for 1 hour. The plates were washed 3× with 300 μl of wash buffer on a plate washer. 50 μl of a 1:10,000 dilution of HRP-labeled goat F(ab′)₂ anti-human IgG F(ab′)₂ (Jackson Immunoresearch # 109-036-097) in ELISA buffer was added to each well. The plates were incubated with shaking for 30 minutes. The plates were washed 3× with 300 μl of wash buffer on the plate washer. 50 μl per well TMB substrate (RDI #RDI-TMBSU-1L) was added to each well and developed for 5 minutes. The reaction was stopped by adding 100 μl 0.2 N sulfuric acid. The plates were read at OD450 on an Envision plate reader.
as §1, with “minutes.” for “minutes. The plates were washed 3× with 300 μl of wash buffer on the plate washer. 50 μl per well TMB substrate (RDI #RDI-TMBSU-1L) was added to each well and developed for 3-5 minutes. The reaction was stopped by adding 100 μl 10.2 N sulfuric acid. The plates were read at OD450 on an Envision plate reader. Antibody concentration vs OD450 values were graphed for each CNTO 860 variant and the antibody concentration needed to achieve an OD450 reading of 0.14 established by interpolation within each data curve.”

T1 sequence (P08637 17-254): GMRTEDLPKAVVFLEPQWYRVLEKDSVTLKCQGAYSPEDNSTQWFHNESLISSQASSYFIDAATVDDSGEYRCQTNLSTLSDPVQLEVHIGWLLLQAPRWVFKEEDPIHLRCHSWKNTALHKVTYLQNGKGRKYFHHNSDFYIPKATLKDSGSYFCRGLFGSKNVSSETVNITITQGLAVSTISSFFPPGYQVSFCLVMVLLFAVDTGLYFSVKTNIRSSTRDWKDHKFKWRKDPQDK
T9 sequence (P12314 16-292): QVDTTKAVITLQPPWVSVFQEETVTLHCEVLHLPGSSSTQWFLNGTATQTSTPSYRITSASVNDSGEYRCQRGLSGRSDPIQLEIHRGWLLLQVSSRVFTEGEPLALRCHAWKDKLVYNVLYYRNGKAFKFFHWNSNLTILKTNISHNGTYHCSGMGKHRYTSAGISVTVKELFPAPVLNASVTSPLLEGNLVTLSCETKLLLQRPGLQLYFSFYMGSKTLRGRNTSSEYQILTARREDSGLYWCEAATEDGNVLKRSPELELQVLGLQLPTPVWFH
T2 sequence (P08637 17-208): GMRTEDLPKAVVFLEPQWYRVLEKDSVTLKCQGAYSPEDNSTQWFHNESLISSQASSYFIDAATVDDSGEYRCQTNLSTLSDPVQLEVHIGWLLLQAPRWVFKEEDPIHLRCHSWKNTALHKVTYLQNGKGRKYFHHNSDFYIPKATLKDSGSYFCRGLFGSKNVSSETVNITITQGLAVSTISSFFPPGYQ

B1: CHO-CNTO 860 I332E/V264I (antibody, human IgG1, kappa)
heavy: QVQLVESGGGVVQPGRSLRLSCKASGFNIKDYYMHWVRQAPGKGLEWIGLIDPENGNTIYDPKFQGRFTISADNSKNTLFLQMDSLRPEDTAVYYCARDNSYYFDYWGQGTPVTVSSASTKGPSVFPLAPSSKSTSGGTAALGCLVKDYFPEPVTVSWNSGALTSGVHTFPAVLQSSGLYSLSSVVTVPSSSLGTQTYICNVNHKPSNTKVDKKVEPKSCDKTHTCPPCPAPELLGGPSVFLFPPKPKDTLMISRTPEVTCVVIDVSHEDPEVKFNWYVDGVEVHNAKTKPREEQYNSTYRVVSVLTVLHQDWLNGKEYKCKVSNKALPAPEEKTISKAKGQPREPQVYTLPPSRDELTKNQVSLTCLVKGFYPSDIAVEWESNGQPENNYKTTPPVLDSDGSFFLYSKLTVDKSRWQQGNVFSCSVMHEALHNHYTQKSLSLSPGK
light: DIQMTQSPSSLSASVGDRVTITCKASQDIRKYLNWYQQKPGKAPKLLIYYATSLADGVPSRFSGSGSGTDYTFTISSLQPEDIATYYCLQHGESPYTFGQGTKLEITRTVAAPSVFIFPPSDEQLKSGTASVVCLLNNFYPREAKVQWKVDNALQSGNSQESVTEQDSKDSTYSLSSTLTLSKADYEKHKVYACEVTHQGLSSPVTKSFNRGEC
modifications: Heavy chain N297 carries the CHO-type N-linked glycan (about 95% fucosylated); not carried by the letters.
notes: IgG1/kappa Fc variant; transiently expressed in CHO cells (p4187/p4146); EU numbering; also called V264I/I332E (CHO cell-derived); copies: 2 + 2
EC25 (ng/ml), ADCC of HCT116 cells by human PBMC [1]: 1 ng/mL
concentration (ng/ml) required for an O.D. value of 0.14 [2]: 900 ng/mL
ECOD1 (concentration required for an O.D. value of 1.0) [3]: 25800 ng/mL
ECOD1 (concentration required for an O.D. value of 1.0) [4]: 1700 ng/mL
ECOD1 (concentration required for an O.D. value of 1.0) [5]: 2000 ng/mL
ECOD1 (concentration required for an O.D. value of 1.0) [6]: 8 ng/mL

B3: CNTO 860 S239D/I332E (antibody, human IgG1, kappa)
heavy: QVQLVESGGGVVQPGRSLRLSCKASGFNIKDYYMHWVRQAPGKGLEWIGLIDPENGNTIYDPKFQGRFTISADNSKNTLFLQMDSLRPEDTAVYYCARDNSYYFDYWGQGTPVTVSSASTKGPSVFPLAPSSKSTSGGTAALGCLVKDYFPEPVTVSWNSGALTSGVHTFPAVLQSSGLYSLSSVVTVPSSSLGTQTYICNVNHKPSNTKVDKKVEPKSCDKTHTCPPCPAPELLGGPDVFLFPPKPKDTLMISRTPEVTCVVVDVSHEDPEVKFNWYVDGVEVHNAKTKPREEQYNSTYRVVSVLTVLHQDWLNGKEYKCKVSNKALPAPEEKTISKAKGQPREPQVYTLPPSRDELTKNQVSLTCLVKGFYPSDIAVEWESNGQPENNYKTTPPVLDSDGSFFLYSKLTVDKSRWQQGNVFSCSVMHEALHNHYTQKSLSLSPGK
light: B1 light
modifications: N-linked glycan at Asn297 of the heavy chain (fucose content depends on host cell, CHO or YB2/0); not carried by the letters
notes: also called S239D/I332E double mutant; copies: 2 + 2
fold change in binding against WT (enhanced) [9]: ~6 fold

B5: CNTO 860 A330I (antibody)
heavy: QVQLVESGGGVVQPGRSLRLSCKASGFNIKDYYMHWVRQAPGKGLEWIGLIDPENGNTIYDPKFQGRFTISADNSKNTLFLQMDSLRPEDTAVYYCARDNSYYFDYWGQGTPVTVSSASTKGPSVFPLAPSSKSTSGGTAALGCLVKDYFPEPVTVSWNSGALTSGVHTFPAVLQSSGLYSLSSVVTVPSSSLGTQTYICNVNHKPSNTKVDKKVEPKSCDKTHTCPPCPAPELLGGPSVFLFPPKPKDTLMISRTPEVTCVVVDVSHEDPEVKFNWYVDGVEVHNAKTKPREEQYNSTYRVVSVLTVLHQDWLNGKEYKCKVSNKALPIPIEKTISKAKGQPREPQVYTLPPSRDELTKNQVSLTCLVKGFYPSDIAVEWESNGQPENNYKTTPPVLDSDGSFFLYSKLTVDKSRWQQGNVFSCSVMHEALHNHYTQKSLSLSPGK
light: B1 light
modifications: N-linked glycan at Asn297 of the heavy chain (fucose content depends on host cell, CHO or YB2/0); not carried by the letters
notes: also called A330I variant; A330I single mutant; copies: 2 + 2
fold change in binding against WT (reduced) [9]: 500 fold

Results, then the binder that gave them:

fold higher concentration than WT to give an OD signal of 200,000 [7]: ~20 fold
fold activity in the ADCC assays [8]: ~10 fold
B2: CNTO 860 A330I/I332E (antibody, human IgG1, kappa)
heavy: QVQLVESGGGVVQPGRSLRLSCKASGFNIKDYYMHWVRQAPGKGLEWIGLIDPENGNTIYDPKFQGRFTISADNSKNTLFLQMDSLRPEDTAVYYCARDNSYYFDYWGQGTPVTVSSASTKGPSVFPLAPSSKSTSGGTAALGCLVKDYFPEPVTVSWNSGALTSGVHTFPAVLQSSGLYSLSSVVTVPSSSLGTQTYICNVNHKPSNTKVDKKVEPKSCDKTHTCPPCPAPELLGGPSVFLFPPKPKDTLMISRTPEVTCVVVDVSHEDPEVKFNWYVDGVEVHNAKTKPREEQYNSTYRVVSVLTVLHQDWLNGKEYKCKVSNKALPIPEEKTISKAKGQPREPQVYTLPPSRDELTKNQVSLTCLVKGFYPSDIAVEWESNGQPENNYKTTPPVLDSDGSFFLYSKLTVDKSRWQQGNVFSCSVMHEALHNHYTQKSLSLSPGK
light: B1 light
modifications: N-linked glycan at Asn297 of the heavy chain (fucose content depends on host cell, CHO or YB2/0); not carried by the letters
notes: also called A330I/I332E double mutant; A330I/I332E variant; copies: 2 + 2

fold change in binding against WT (enhanced) [10]: 2 fold
B4: CNTO 860 I332E (antibody)
heavy: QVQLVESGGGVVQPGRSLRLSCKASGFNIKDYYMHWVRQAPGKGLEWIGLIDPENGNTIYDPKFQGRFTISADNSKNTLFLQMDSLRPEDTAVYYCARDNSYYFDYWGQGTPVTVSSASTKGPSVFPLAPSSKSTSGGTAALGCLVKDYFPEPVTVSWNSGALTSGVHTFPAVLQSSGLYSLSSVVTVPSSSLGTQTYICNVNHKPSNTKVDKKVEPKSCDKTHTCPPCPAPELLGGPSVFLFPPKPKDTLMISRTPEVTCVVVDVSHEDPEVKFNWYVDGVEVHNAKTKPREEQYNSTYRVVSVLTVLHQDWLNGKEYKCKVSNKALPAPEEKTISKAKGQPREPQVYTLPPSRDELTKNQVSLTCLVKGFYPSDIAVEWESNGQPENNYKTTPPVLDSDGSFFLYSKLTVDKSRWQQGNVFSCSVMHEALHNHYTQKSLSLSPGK
light: B1 light
modifications: N-linked glycan at heavy chain Asn297 (host cell not specified in these sentences); not carried by the letters
notes: also called I332E variant; I332E single mutant; copies: 2 + 2

From patent publication US20080311034A1 (published 2008)
